Assay results: patent US12252531B2, “Methods of screening for high-affinity, isoform-selective TGFβ1 inhibitors” (Scholar Rock, Inc., priority 2018, dated 2025)

Experiments:
[1] = system: LTBP1-proTGFβ1, LTBP3-proTGFβ1, GARP-proTGFβ1 and LRRC33-proTGFβ1 complexes; test: BLI (OCTET), binding profile and bias across the four complexes; design: species or system human; settings: ratio of average KD cell-associated / matrix-associated
Description: (§1) Column (A) of the table lists monoclonal antibodies with discrete amino acid sequences. […] Columns (B), (D), (E) and (F) provide affinities of each of the listed antibodies, measured in KD. […] Average KD values of (B) and (C) are shown in the corresponding column (D), which collectively represents affinities of the antibodies to ECM- or matrix-associated proTGFβ1 complexes. Similarly, Average KD values of (E) and (F) are shown in the corresponding column (G), which collectively represents affinities of the antibodies to cell-surface or cell-associated proTGFβ1 complexes. Finally, relative ratios between the average KD values from columns (D) and (G) are expressed as “fold bias” in column (H). Thus, the greater the number of column (H) is, the greater bias exists for the particular antibody, when comparing binding preferences of the antibody for matrix-associated complexes and cell-surface complexes. This is one way of quantitatively representing and comparing inherent bias of antibodies to their target complexes. Such analyses may be useful in guiding the selection process for a candidate antibody for particular therapeutic use.
(§2) The concept of “uniformity” or lack of bias is further illustrated in Table 8. Average KD values between the two matrix-associated and cell-associated complexes are calculated, respectively (see columns (D) and (G)). These average KD values can then be used to ask whether bias in binding activities exists between complexes associated with matrix vs. complexes associated with cell surface (e.g., immune cells). Bias may be expressed as “fold-difference”in the average KD values, as illustrated in Table 8.

[2] = system: Cell-associated proTGFb1 (hGARP, hLRRC33); test: BLI (OCTET), average over cell-associated complexes; assay type: binding, human; settings: average KD of (E) and (F), read-out: (G) Cell AVRG
Description: as §1, §2

[3] = biological target: Matrix-associated proTGFb1 (hLTBP1, hLTBP3); test: BLI (OCTET), average over matrix-associated complexes; assay type: binding, human; settings: average KD of (B) and (C), read-out: (D) ECM AVRG
Description: as §1, §2

[4] = biological target: Matrix-associated proTGFβ1 (hLTBP1, hLTBP3); test: MSD-SET, average over matrix-associated complexes; assay type: binding, human; settings: average of (B) and (C), read-out: (D) ECM AVRG
Description: as §1
(§3) Solution equilibrium titration (“SET”) is an assay whereby binding between two molecules (such as an antigen and an antibody that binds the antigen) can be measured at equilibrium in a solution. For example, Meso-Scale Discovery (“MSD”)-based SET, or MSD-SET, is a useful mode of determining dissociation constants for particularly high-affinity protein-protein interactions at equilibrium (see, for example: Ducata et al. (2015) J Biomolecular Screening 20(10): 1256-1267). The SET-based assays are particularly useful for determining KD values of antibodies with sub-nanomolar (e.g., picomolar) affinities.

[5] = system: Cell-associated proTGFβ1 (hGARP, hLRRC33); test: MSD-SET, average over cell-associated complexes; assay type: binding, human; settings: average of (E) and (F), read-out: (G) Cell AVRG
Description: as §1, §3

[6] = system: hLTBP1-proTGFβ1, hLTBP3-proTGFβ1, hGARP-proTGFβ1 and hLRRC33-proTGFβ1; test: MSD-SET, binding profile and bias across the four human LLCs; settings: ratio of average KD cell-associated / matrix-associated
Description: Solution Equilibrium Titration (SET): The SET is an assay whereby binding between two molecules (such as an antigen and an antibody that binds the antigen) can be measured at equilibrium in a solution. For example, Meso-Scale Discovery (“MSD”)-based SET, or MSD-SET, is a useful mode of determining dissociation constants for particularly high-affinity protein-protein interactions at equilibrium, such as picomolar-affinity antibodies binding to their antigens (see, for example: Ducata et al. (2015) J Biomolecular Screening 20(10): 1256-1267). The SET-based assays are particularly useful for determining KD values of antibodies with sub-nanomolar (e.g., picomolar) affinities.
as §3
For solution equilibrium titration-based binding assays, protein complexes that comprise one of the presenting molecules such as those shown above may be employed as antigen (presenting molecule-TGFβ1 complex, or an LLC). Test antibodies are allowed to form antigen-antibody complex in solution. Antigen-antibody reaction mixtures are incubated to allow an equilibrium to be reached; the amount of the antigen-antibody complex present in the assay reactions can be measured by suitable means well known in the art. As compared to BLI-based assays, SET-based assays are less affected by on/off rates of the antigen-antibody complex, allowing sensitive detection of very high affinity interactions.

Molecule	(H) G/D (fold bias) [1] [fold]	Kd [3] [pM]	Kd [4] [pM]	(H) G/D (fold bias) [6] [fold]	Kd [2] [pM]	Kd [5] [pM]
Ab21: proTGFβ1 antibody; VH SEQ ID NO: 129, VL SEQ ID NO: 15 (antibody, V domains shown) VH: EVQLVESGGGLVQPGGSLRLSCAASGFTFSSFSMDWVRQAPGKGLEWVSYISPDASTIYYADSVKGRFTISRDNAKNSLYLQMNSLRAEDTAVYYCARGVLDYGDMLDPWGQGTLVTVSS VL: DIQMTQSPSSLSASVGDRVTITCQASQDITNYLNWYQQKPGKAPKLLIYDASNLETGVPSRFSGSGSGTDFTFTISSLQPEDIATYYCQQADNHPPWTFGGGTKVEIK	2.613	246			644	
Ab22: proTGFβ1 antibody; VH SEQ ID NO: 130, VL SEQ ID NO: 15 (antibody, V domains shown) VH: EVQLVESGGGLVQPGGSLRLSCAASGFTFGSFSMNWVRQAPGKGLEWVSYIHSDASTIYYADSVKGRFTISRDNAKNSLYLQMNSLRAEDTAVYYCARGVLDYGDMLDPWGQGTLVTVSS VL: DIQMTQSPSSLSASVGDRVTITCQASQDITNYLNWYQQKPGKAPKLLIYDASNLETGVPSRFSGSGSGTDFTFTISSLQPEDIATYYCQQADNHPPWTFGGGTKVEIK	2.147	324	42	2.71	694	114
Ab30: proTGFβ1 antibody; VH SEQ ID NO: 138, VL SEQ ID NO: 15 (antibody, V domains shown) VH: EVQLVESGGGLVQPGGSLRLSCAASGFTFSSFSMDWVRQAPGKGLEWVSYISPDASTIYYADSVKGRFTISRDNAKNSLYLQMNSLRAEDTAVYYCARGTLDYGDMLDPWGQGTLVTVSS VL: DIQMTQSPSSLSASVGDRVTITCQASQDITNYLNWYQQKPGKAPKLLIYDASNLETGVPSRFSGSGSGTDFTFTISSLQPEDIATYYCQQADNHPPWTFGGGTKVEIK	2.307	296	29	2.80	684	81
Ab28: proTGFβ1 antibody; VH SEQ ID NO: 136, VL SEQ ID NO: 15 (antibody, V domains shown) VH: EVQLVESGGGLVQPGGSLRLSCAASGFTFSSFSMDWVRQAPGKGLEWVSYISPDASTIYYADSVKGRFTISRDNAKNSLYLQMNSLRAEDTAVYYCVRGVLDYGDMLDPWGQGTLVTVSS VL: DIQMTQSPSSLSASVGDRVTITCQASQDITNYLNWYQQKPGKAPKLLIYDASNLETGVPSRFSGSGSGTDFTFTISSLQPEDIATYYCQQADNHPPWTFGGGTKVEIK	1.838	328			603	
Ab23: proTGFβ1 antibody; VH SEQ ID NO: 131, VL SEQ ID NO: 15 (antibody, V domains shown) VH: EVQLVESGGGLVQPGGSLRLSCAASGFTFSSFSMNWVRQAPGKGLEWVSYISPSADTIYYADSVKGRFTISRDNAKNTLYLQMNSLRAEDTAVYYCARGVLDYGDMLDPWGQGTLVTVSS VL: DIQMTQSPSSLSASVGDRVTITCQASQDITNYLNWYQQKPGKAPKLLIYDASNLETGVPSRFSGSGSGTDFTFTISSLQPEDIATYYCQQADNHPPWTFGGGTKVEIK	2.028	442			898	

Now those with a lower Kd [3], led by results:

(H) G/D (fold bias) [1] [fold]	Kd [3] [pM]	Kd [4] [pM]	(H) G/D (fold bias) [6] [fold]	Molecule	Kd [2] [pM]	Kd [5] [pM]
2.421	222	23	4.35	Ab24: proTGFβ1 antibody; VH SEQ ID NO: 132, VL SEQ ID NO: 15 (antibody, V domains shown) VH: EVQLVESGGGLVQPGRSLRLSCAASGFTFSSFAMYWVRQAPGKGLEWVSYISPDASTIYYADSVKGRFTISRDNAKNSLYLQMNSLRAEDTAVYYCARGVLDYGDMLDPWGQGTLVTVSS VL: DIQMTQSPSSLSASVGDRVTITCQASQDITNYLNWYQQKPGKAPKLLIYDASNLETGVPSRFSGSGSGTDFTFTISSLQPEDIATYYCQQADNHPPWTFGGGTKVEIK	538	100
1.965	155		2.00	Ab29: proTGFβ1 antibody; VH SEQ ID NO: 137, VL SEQ ID NO: 15 (antibody, V domains shown) VH: EVQLVESGGGLVQPGRSLRLSCAASGFTFSSFAMNWVRQAPGKGLEWVSYISPDASTIYYAGSVKGRFTISRDNAKNSLYLQMNSLRAEDTAVYYCVRAVLDYGDMLDPWGQGTLVTVSS VL: DIQMTQSPSSLSASVGDRVTITCQASQDITNYLNWYQQKPGKAPKLLIYDASNLETGVPSRFSGSGSGTDFTFTISSLQPEDIATYYCQQADNHPPWTFGGGTKVEIK	304	24
2.500	197	26	2.77	Ab26: proTGFβ1 antibody; VH SEQ ID NO: 134, VL SEQ ID NO: 15 (antibody, V domains shown) VH: EVQLVESGGGLVQPGGSLRLSCAASGFTFSSFSMDWVRQAPGKGLEWVSYISPDASTIYYADSVKGRFTISRDNAKNTLYLQMNSLRAEDTAVYYCARGVLDYGDMLDPWGQGTLVTVSS VL: DIQMTQSPSSLSASVGDRVTITCQASQDITNYLNWYQQKPGKAPKLLIYDASNLETGVPSRFSGSGSGTDFTFTISSLQPEDIATYYCQQADNHPPWTFGGGTKVEIK	492	72
2.431	184			Ab25: proTGFβ1 antibody; VH SEQ ID NO: 133, VL SEQ ID NO: 15 (antibody, V domains shown) VH: EVQLVESGGGLVQPGGSLRLSCAASGFTFGSFSMDWVRQAPGKGLEWVSYISPDASTIYYADSVKGRFTISRDNAKNSLYLQMNSLRAEDTAVYYCARGVLDYGDMLDPWGQGTLVTVSS VL: DIQMTQSPSSLSASVGDRVTITCQASQDITNYLNWYQQKPGKAPKLLIYDASNLETGVPSRFSGSGSGTDFTFTISSLQPEDIATYYCQQADNHPPWTFGGGTKVEIK	448	
1.738	208			Ab27: proTGFβ1 antibody; VH SEQ ID NO: 135, VL SEQ ID NO: 15 (antibody, V domains shown) VH: EVQLVESGGGLVQPGGSLRLSCAASGFTFSFYAMNWVRQAPGKGLEWVSYISPDASTIYYADSVKGRFTISRDNAKNSLYLQMNSLRAEDTAVYYCARGVLDYGDMLDPWGQGTLVTVSS VL: DIQMTQSPSSLSASVGDRVTITCQASQDITNYLNWYQQKPGKAPKLLIYDASNLETGVPSRFSGSGSGTDFTFTISSLQPEDIATYYCQQADNHPPWTFGGGTKVEIK	362	
2.376	208	17	3.41	Ab31: proTGFβ1 antibody; VH SEQ ID NO: 139, VL SEQ ID NO: 15 (antibody, V domains shown) VH: EVQLVESGGGLVQPGGSLRLSCAASGFTFSSFSMDWVRQAPGKGLEWVSYISPDASTIYYADSVKGRFTISRDNAKNTLYLQMNSLRAEDTAVYYCARAVLDYGDMLDPWGQGTLVTVSS VL: DIQMTQSPSSLSASVGDRVTITCQASQDITNYLNWYQQKPGKAPKLLIYDASNLETGVPSRFSGSGSGTDFTFTISSLQPEDIATYYCQQADNHPPWTFGGGTKVEIK	496	58
